Positions count from the first letter of the chain named.
B1: SIRP5 (antibody, V domains shown)
VH: QVQLQQSAAELARPGASVKMSCKASGYTFTSYTMHWVKQRPGQGLEWIGYINPTIGYTEYNQKFKDKTTLTADKSSSTAYMQLSSLTSEDSAVYYCVRLVITSVLGRAMDYWGQGTSVTVSS
VL: QIVLTQSPALMSASPGEKVTMTCSASSSVSYMYWFQQKPRSSPKPWIYLTSNLASGVPARFSGSGSGTSYSLTISSMEAEDAATYYCQQWSGNPFTFGSGTKLEIK
B2: SIRP1 (antibody, mouse IgG1, kappa, V domains shown)
VH: QVQLQQSGAELMKPGASVKISCKATGYSFTKYWIEWVKQRPGHGLEWIGEILPGSVITNYNEKFKGKATFTADTSSNTVYMQLSSLTSEDSAVYYCTKWGLYDSDDGVDYWGQGTTLTVSS
VL: ENVLTQSPAIMSASLGEKVTMSCRASSGVNYMYWYQQKSDASPKLLIYYTSILAPGVPARFSGSGSGNSYSLTISSMEGEDAATYYCQQFTSSPYTFGGGTKLEIKR
B3: SIRP12 (antibody, human IgG4 S228P, kappa, V domains shown)
VH: QVQLVQSGAEVKKPGASVKVSCKASGYSFTDYFLNWVRQAPGQGLEWMGRINPYNGDSFINQNFRDRVTMTRDTSTSTVYMELSSLRSEDTAVYYCARGGYDGYFIAYFDYWGAGTTVTVSS
VL: DIQMTQSPSSLSASVGDRVTITCKASQDINSHLSWYQQKPGKAPKLLIYRANRLATGVPSRFSGSGSGTDFTFTISSLEYEDIATYYCLQYDEFPYTFGGGTKLEIKR
B4: SIRP21 (antibody, human IgG4 S228P, kappa, V domains shown)
VH: B3 VH with R72V
VL: B3 VL
B5: SIRP18 (antibody, human IgG4 S228P, kappa, V domains shown)
VH: EVQLVQSGAEVKKPGESLKISCKGSGYSFTDYFLNWVRQMPGKGLEWMGRINPYNGDSFINQNFRDQVTISADKSISTAYLQWSSLKASDTAMYYCARGGYDGYFIAYFDYWGAGTTVTVSS
VL: B3 VL
B6: SIRP15 (antibody, human IgG4 S228P, kappa, V domains shown)
VH: B3 VH with A16S, M70I, R72A, T74K, V79A
VL: B3 VL
B7: SIRP6 (antibody, V domains shown)
VH: QIQLVQSGPELKKPGETVKISCKASGYTFTDYGVNWVKQGPGKDLQWMGWVNTNTRESTYVEDFKGRFAFSLETSASTAYLQINNLKNEDSSTYFCARGAYDAYYYYYGMDYWGQGTSVTVSS
VL: DIQMTQSPASLSASVGETVTITCRASENIYSYLTWYKQKQGKSPQLLVYNAKTLAEGVPSRFSGSGSGTQFSLKINSLQPEDFGSYYCQHHYGSPRTFGGGTKLEIK
B8: SIRP9 (antibody, V domains shown)
VH: EVQLQESGAELVRPGASVKLSCKALGYTFTDYEIHWVKETPVYGLEWIGDIHPGSGGTANNQKFKGKATLTADKSSNTAYMELSSLTSEDSAVYYCTRAVSGYYAMDYWGQGTSVTVSS
VL: DIQMTQSSSSFSGSLGDRLTINCKASEDIYDRVAWYQQKPGNAPRLLISGTASLETGVLSRFSGSGSGKDYTLSINGLQAEDVATYYCQQYWTTPWTFGGGTKLEIK
B9: SIRP3 (antibody, mouse IgG1, kappa, V domains shown)
VH: EVQLQQSGPEVVKPGASVKMSCKASGYTFTSYVMHWVKQKPGQGLEWIGYINPYNDGPKYNEKFKGKATLTSDKSSSTAYMELSSLTSEDSAVYFCARWDYFNSASGFAFWGQGTLVTVSA
VL: EIVLTQSPTTMAASPGEKITIICSASSIIGSDFLHWYQQRPGFSPKFLIYRTSILASGVPTRFTGSGSGTSYSLTIGTMEAEDVATYYCQQGSGLPLTFGSGTKLEMKR
B10: SIRP10 (antibody, V domains shown)
VH: EVQLQESGAELVRPGTSVKMSCKAAGYTFSNYLIGWIKQRPGHGLEWIGDIYPGDNNTNYNEKFRVKATLTADTSSNTAYMHLTSLTSEDSAIYYCAGGTDYDGFANWGQGTLVTVSA
VL: ENVLTQSPAIMSASLGEKVTMSCRASSSVNYMYWYQQKSDASPKLWIYYTSKLAPGVPARFSGSGSGNSYSLTISSMEGEDAATYYCQQFTSSPFTFGSGTKLEIK
B11: SIRP8 (antibody, V domains shown)
VH: EVQLQESGGGLVKPGGSLKLSCAASGFTLSTYTMSWVRQTPEKRLEWVAIITSGDTYTYYPDSVKGRFTISRDNAKNTLYLQMSSLKSEDTGMYYCTRDRPLFHWGQGTTLTVST
VL: QIVLTQSPAIMSASPGEKVTMTCSASSSVSYMYWYQQKPGSSPRLLIYDTSNLASGVPVRFSGSGSGTSYSLTISRMEAEDAATYYCQQWSSFPWTFGGGTKLEIK
B12: SIRP7 (antibody, V domains shown)
VH: EVQLQQSGPELVKPGASVKMSCRASGYTFSTYVMHWIKHRPGQGLEWIGYINPNNDGPNYNEKFKGKATLTSDISSSTAYMELSSLTSEDSAVYFCSRWDSYNSAAGFAYWGHGTLVTVSA
VL: EIVLTQSPTTMAASPGEKITIICSASSSISSNFLHWYQQKPGFSPRFLIYRTSILASGVPTRFSGSGSGTSYSLTIDTMEAEDVATYYCQQGSGLPLTFGSGTKLEIK
B13: SIRP2 (antibody, mouse IgG1, kappa, V domains shown)
VH: EVKLVESGGGLVQPGGSLKLSCAASGFSFSGCTMSWIRQTPERRLEWVAYISNGGDITYYPDTVKGRFTISRDNAKNSLYLQMSSLKSEDTAMYYCARLDGYYYAMDFWGQGTSVTVSS
VL: DILLTQSPAILSVSPGERVSFSCRASQSIGTSIHWYQQRTNGSPRLLIKYGSESISGIPSRFSGSGSGTDFTLSINSVESEDIADYYCQQSNTWPLTFGDGTKLELKR
B14: SIRP23 (antibody, human IgG4 S228P, kappa, V domains shown)
VH: EVQLQQSGPDLVKPGASVKISCKASGYSFTDYFLNWVKQSHGKSLEWIGRINPYNGDSFINQNFRDKATLTVDKSSTTAHMDLLSLTSEDSAIYYCGRGGYDGYFIAYFDYWGQGSLVTVSA
VL: DIKMTQSPSSMYASLGQRVTITCKASQDINSHLSWFQEKPGKSPKTLIYRANRLADGVPSRFSGSGSGQDYFLTISSLEYEDVGIYYCLQYDEFPYTFGGGTKLEIKR
B15: SIRP4 (antibody, V domains shown)
VH: B14 VH
VL: DIKLTQSQSSMYSSLGQRVTITCKASQDINSHLSWFQEKPGKSPKTLIYRANRLADGVPSRFSGSGSGQDYFLTISSLEYEDVGIYYCLQYDEFPYTFGGGTKLEIK

Target: Fc tagged human SIRPα (ACRO #SIG-H5251, genotype variant 1) (human) (UniProt P78324)
Sequence (P78324 31-370, change not shown): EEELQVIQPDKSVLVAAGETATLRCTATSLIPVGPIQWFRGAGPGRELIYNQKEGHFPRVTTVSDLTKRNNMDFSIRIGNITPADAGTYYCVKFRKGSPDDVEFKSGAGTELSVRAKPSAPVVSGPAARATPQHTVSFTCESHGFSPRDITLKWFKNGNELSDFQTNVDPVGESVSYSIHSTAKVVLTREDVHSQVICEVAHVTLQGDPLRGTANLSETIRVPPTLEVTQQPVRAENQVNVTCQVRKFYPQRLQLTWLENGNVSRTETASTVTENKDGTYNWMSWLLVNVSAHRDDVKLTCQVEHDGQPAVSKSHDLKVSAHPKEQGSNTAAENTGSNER
Experiment: solid-phase ELISA on plate-coated Fc tagged human SIRPα; apparent Kd

Binder	Kd
B1	0.065 nM
B2	0.039 nM
B3	0.165 nM
B4	0.274 nM
B5	0.364 nM
B6	0.608 nM
B7	0.131 nM
B8	0.583 nM
B9	0.289 nM
B10	> 10 nM
B11	0.057 nM
B12	0.197 nM
B13	0.182 nM
B14	0.164 nM
B15	0.161 nM
